In patent US12685772B2, “Methods for treating CAPRIN-1 expressing cancers” (TORAY INDUSTRIES, INC., priority 2020, dated 2026):

Target: T1, CAPRIN-1 protein (Homo sapiens, UniProt Q14444)
T1 construct: made in house
T1 sequence (Q14444 1-709): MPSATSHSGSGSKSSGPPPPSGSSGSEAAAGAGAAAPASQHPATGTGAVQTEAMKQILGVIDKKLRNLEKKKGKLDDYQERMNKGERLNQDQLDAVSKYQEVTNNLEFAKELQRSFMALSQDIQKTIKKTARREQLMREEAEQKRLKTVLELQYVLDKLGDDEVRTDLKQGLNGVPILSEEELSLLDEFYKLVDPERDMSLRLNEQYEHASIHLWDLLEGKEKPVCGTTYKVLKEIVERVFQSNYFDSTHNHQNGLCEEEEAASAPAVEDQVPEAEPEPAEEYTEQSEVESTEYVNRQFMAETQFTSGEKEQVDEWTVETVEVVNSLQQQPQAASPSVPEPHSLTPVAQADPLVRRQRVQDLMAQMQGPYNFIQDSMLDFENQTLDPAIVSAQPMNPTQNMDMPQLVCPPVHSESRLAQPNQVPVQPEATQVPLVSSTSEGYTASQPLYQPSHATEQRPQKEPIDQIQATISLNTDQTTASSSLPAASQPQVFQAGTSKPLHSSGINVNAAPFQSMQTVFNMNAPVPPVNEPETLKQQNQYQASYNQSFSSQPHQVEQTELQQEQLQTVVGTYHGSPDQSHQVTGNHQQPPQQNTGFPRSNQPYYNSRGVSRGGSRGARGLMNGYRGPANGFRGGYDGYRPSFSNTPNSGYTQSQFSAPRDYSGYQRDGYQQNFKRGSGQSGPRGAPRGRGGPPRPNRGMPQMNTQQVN
Test: ELISA using CAPRIN-1 protein immobilized on a plate
Type: binding
Method: One hundred (100) μg of a human CAPRIN-1 recombinant protein produced according to Example 3 of WO2010/016526 was mixed with a MPL+TDM adjuvant (Sigma) in an amount equivalent to that of the recombinant protein. The mixture was used as an antigen solution per mouse. The antigen solution was administered intraperitoneally to 6-week-old Balb/c mice (Japan SLC Inc.) and then further administered 3 times […] every week for completion of immunization. A spleen was removed on day 3 after the final immunization and then ground between two sterilized glass slides. Spleen cells were obtained by washing with PBS (−) (Nissui Pharmatheutical), centrifuging at 1500 rpm for 10 minutes, and removing supernatant, therein these were repeated 3 times. The obtained spleen cells were mixed with mouse myeloma cell SP2/0 (purchased from ATCC) at a ratio of 10:1. The PEG solution prepared by mixing 200 μl of RPMI1640 medium containing 10% FBS heated at 37° C. and 800 μl of PEG1500 (Boehringer) was added to the cells. The solution was incubated for 5 minutes for cell fusion. Centrifugation was performed at 1700 rpm for 5 minutes to remove supernatants. […] Absorbance at 450 nm and absorbance at 595 nm were measured using an absorption spectrometer. As a result, a plurality of hybridomas producing antibodies with high absorbances were selected. […]

specific reactivity to CAPRIN-1 protein: exhibiting reactivity
B1: monoclonal antibody against CAPRIN-1 described in WO2013/125630: mouse monoclonal antibody with heavy-chain variable region SEQ ID NO: 114 and light-chain variable region SEQ ID NO: 115 (antibody, listed as Mus musculus, V domains shown)
VH: GPELVKPGASVKMSCKASGYTFTSYVMHWVKQKPGQGLEWIGYINPYNDGTKYNEKFKGKATLTSDKSSSTAYMELSSLTSEDSAVYYCARRYYYGSSGGYFDVWAQDHVRT
VL: DVQITQSPSYLAASPGETITINCRASKSISKYLAWYQEKPGKTNKLLIYSGSTLQSGIPSRFSGSGSGTDFTLTISSLEPEDFAMYYCQQHNEYPYTFGGGTKLEIKR
